In PMC9907207 (Nature Communications, 2023):
Where two headings read alike, the source gives them in different places.

Columns and labels:
SARS-CoV-1 RBD = SARS-CoV-1 RBD (SARS-CoV (SARS-CoV-1), isolate not …, UniProt P59594)
[1] = target: T1, SARS-CoV-2 RBD (residues 319-541), ancestral strain (SARS-CoV-2, UniProt P0DTC2)
bat RaTG12-CoV RBD = bat RaTG12-CoV RBD (Bat coronavirus RaTG13 (printed as …, UniProt A0ABF7PLN6))
[2] = target: T1, SARS-CoV-2 RBD (residues 319-541), …; assay: BLI; conditions: both partners purified
[3] = target: T2, C-terminally His-tagged SARS-CoV-2 RBD (residues 333-528) (SARS-CoV-2, UniProt P0DTC2); assay: crystal structure; conditions: both partners purified
T2 construct: source: expressed and purified as for the other RBDs (Expi293, Talon resin)

Binder	binding result (SARS-CoV-1 RBD)	binding result [1]	binding result (bat RaTG12-CoV RBD)	further results
GAR14 (antibody, V domains shown) VH: EVQLVESGGGLVQPGGSLRLSCAASGFTFSRYDMHWVRQTTGKGLEWVSAIGTAGDTYYPDSVKGRFTISRENAKNSLHLQMNSLRVGDTAVYFCARAVDCSDISCYSNWYFDLWGRGTLVTVSS VL: DIQLTQSPSSLSASVGDRVTITCRASQTISSFLNWYQQKPGKAPHLLIYAASSLQSGVPSRFSGSGSGTDFTLTITNLQPEDFATYYCQQSYSTPPITFGQGTRLEIK	binds	binds	binds	–
GAR09 (antibody, V domains shown) VH: EVQLVESGGGLVQPGGSLRLSCAASGFTVSYNYMSWVRQAPGKGLEWVSLIYSGGSTYYADSVKGRFTISRDSSKNTLYLQMNSLRVEDTAVYYCAREVPSRSGWSGGQGTLVTVSS VL: DIVMTQSPSSLSASVGDRVTITCQASQDMNKYLNWYQQKPGKAPKLLIYDASNLETGVPSRFSGSGSGTNFTFTISSLQPEDIATYYCQQYDNLPPVFGPGTKVEIK	–	binds	–	–
GAR17 (antibody, V domains shown) VH: EVQLVESGGGLGQPGGSLRLSCAASGFNFSNYAMSWVRQAPGKGLEWISTVGGSGDSTYYADSVKGRFTISIDNSKNRLYLQMNSLRSEDTAVYYCAKELAVMPPYFYYYAMDVWGQGTTVTVSS VL: QPVLTQPPSASGTPGQRVTISCSGTTSNVGSTYVYWYQQLPGTAPKLLIYRYNQRPSGVPDRFSGSKSGTSASLVISGLRSDDEAVYYCATWDDSRHVVFGGGTKLTVL	–	binds	–	–
GAR05, human IgG1 monoclonal antibody (antibody, V domains shown, source: ExpiCHO, purified (Protein G resin)) VH: EVQLVQSGGDLVQPGGSLRLSCAVSGFTVSRNYMTWVRQAPGRGLEWVSLIYPGGSAFYADSVKGRFTISRDNSKNTLYLQMNSLRVEDTAVYYCARDPVSTGHYHDSDYWGQGTLVTVSS VL: DIQMTQSPSALSASVGDRVTITCQASQDINKFLNWYQQKPGKAPKLLIYDASNLETGVPSRFSGGGSGTDFTFTISSLQPEDIATYYCHQYDNLPRTFGQGTKVELK	–	–	–	Kd [2]: 0.54 nM
GAR20 (antibody, V domains shown) VH: QVQLQQWGAGLLKPSETLSLTCAVYGGSFSDFYWSWIRQPPGKGLEWIGQIDHSGSPNYNPSLKSRVTMSVDTSKNHFSLRLTSMTAADTAVYYCAKGPRYGSGSFDPLGQGTLVTVSS VL: SYELTQPPSVSVAPGQTARITCGGDNIGSKTVHWYQQKPGQAPVLVVYDDGDRPSGIPERFSGSNPGNTATLTISRVEAGDEADYYCQVWDSSSDSVVFGGGTELTVL	binds	binds	binds	–
10G4 Fab (Fab, V domains shown, also called additional antibody Fab (10G4)) VH: QVQLVESGGGVVQPGRSLRLSCAASGFTFSSYGMHWVRQAPGKGLEWVAVIWYDGSDKYYADSVKGRFTISRDNSKNTLYLQINSLRAEDTAMYYCAREATAGFDYWGQGNLVTVSS VL: NIQMTQSPSAMSASVGDRVTITCRARQDISSYLAWFQQKPGKVPKHLIYAASTLLSGVPSRFSGSGSGTEFTLTISSLQPEDFATYYCLQHNSYPYTFGQGTKLEIN	–	–	–	binding result [3]: binds
GAR15 (antibody, V domains shown) VH: EVQLVESGGGLVQPGGSLRLSCAASGLTVSSNYMSWVRQAPGKGLEWVSVIYSGGSTFYADSVKGRFTISRHNSKNTLYLQMNSLRGDDTAVYYCARDLIYYGMDVWGQGTTVTVSS VL: DIVMTQSPSSLSASVGDRVTITCRASQGISSSLAWYQQNPGKPPKLLIYAASTLQSGVPSRFSGSGSGTDFTLTISSLQPEDFATYYCQQLNSDLYTFGQGTKVEIK	–	binds	–	–
GAR04 (antibody, V domains shown) VH: QVQLVQSGAEVKKSGASVKVSCKASGYTFTGYHMHWVRQAPGQGLEWMGWINPKSDGTNSAQKFQGRVTMTRDTSISTAYMELSRLRSDDTAVYYCARLAVREYYDNSGFYRKTTDAFDLWGQGTMVTVSS VL: DIVMTQSPDSLAVSLGERATINCKSSQSVLYNSNNKNYLAWYQQKPGQPPKLLIYWASTRESGVPDRFSGSGSGTDFTLTINSLQAEDVAVYYCQQYSITTPPITFGQGTRLEIK	–	binds	–	–
GAR11 (antibody, V domains shown) VH: EVQLVQSGTEVKKPGSSVKVSCEASGGTFSKYAITWVRQAPGQGLEWMGGIIPIFGTANYAQKFQDRVKITADEITSIAYMELNSLSSEDTAVYYCARDNRGRGFGEILSYYYGMDVWGQGTTVTVSS VL: SALTQPASVSGSPGQSITISCTGTSSDVGGYNYVSWYQQHPGKAPKLMIYDVATRPSGVSDRFSGSKSGNTASLTISGLQAEDEADYYCSSYTSSNTLAFGGGTKLTVL	binds	binds	binds	–
GAR06 (antibody, V domains shown) VH: QVTLRESGPALVKPTQTLTLTCTFSGFSVSSAGMCVSWIRQPPGKALEWLARIDWDDDKYYSTSLRTRLTISTDTSKNQVVLTMTNMDPVDTATYYCARTTMTTSYYFDSWGQGTLVTVSS VL: QSALTQPRSVSGSPGQSVTISCTGTSSDVGGYDYVSWYQHHPGKAPKVVLYDVTKRPSGVPDRFSGSKSGNTASLTISGLQAEDEADYYCCSYAGSYAGVFGTGTKVTVL	–	binds	–	–
GAR07 (antibody, V domains shown) VH: EVQLVQSGGGLVQPGGSLRLSCAASEFIVSSNYMSWVRQAPGKGLEWVSVIYSGGSTFYADSVKGRFTISRDNSKNTLHLQMNSLRVEDTAVYYCARDRGDRFDYWGQGTLVTVSS VL: not shown	–	binds	–	–
GAR12 Fab (Fab, V domains shown, also called GAR12 Fab fragment; source: ExpiCHO, purified (Talon resin, S200 SEC)) VH: EVQLVQSGGGLVQPGGSLRLSCAASGFTFSSYAMSWVRQAPGKGLEWVLSISGSGGSTYYADSVKGRFTISIDNSKKTVYLQMNSLRAEDTAVYYCAKSGEQQLVQAEYFHHWGQGTLVTVSS VL: DIQMTQSPSTLSASVGDRVTITCRASQSIGRWLAWYQQKPGKAPKLLIYDASSLESGVPSRFSGSGFGTEFTLTISSLQPDDFATYYCQQCDSLLTFGGGTKLEIK	–	–	–	binding result [3]: binds
GAR12, human IgG1 monoclonal antibody (antibody, V domains shown, source: ExpiCHO, purified (Protein G resin)) VH: EVQLVQSGGGLVQPGGSLRLSCAASGFTFSSYAMSWVRQAPGKGLEWVLSISGSGGSTYYADSVKGRFTISIDNSKKTVYLQMNSLRAEDTAVYYCAKSGEQQLVQAEYFHHWGQGTLVTVSS VL: DIQMTQSPSTLSASVGDRVTITCRASQSIGRWLAWYQQKPGKAPKLLIYDASSLESGVPSRFSGSGFGTEFTLTISSLQPDDFATYYCQQCDSLLTFGGGTKLEIK	–	–	–	binding result [2]: binds
GAR01 (antibody, V domains shown) VH: QVQLVQSEGGVVQPGRSLRLSCTASGFTFSSYGMHWVRQAPGKGLEWVALISYDGSDKYYADSVKGRFTISRDNSKNTLYLQMNSLRPEDTAVFYCAKGGWYGSSSGFDYWGQGTLVTVSS VL: DIQMTQSPSSLSASVGDRVTITCQASQDISNYLNWYQQKPGKAPKLLIYDASNLETGVPSRFSGSGSGTDFIFTISSLQPEDIATYYCQQYHDVPRTFGQGTKVEIK	binds	binds	binds	–
GAR13 (antibody, V domains shown) VH: EVQLVESGGGLVQPGGSLRLSCAASGFTFSNYDMHWVRQVTGKGLEWVSLIGTSGDTYYPGSVKGRFTISRDNAKNSLYLQMNSLRADDTAVYYCVRAAFDDHNIYSWFDSWGQGTLVTVSS VL: DIQMTQSPSSLSASVGDRVTITCRASQSIGRYLNWYQQKPGKAPKLLIYTASSLQSGVPSRFSGSGSGTEFTLTISSLQPEDFATYYCQQSYNIPPLTFGGGTKVEIK	binds	binds	binds	–
S2H97, class 5 monoclonal antibody (antibody, V domains shown) VH: QVRLVQSGAEVKKSGESLKISCKGSGYSFTSYWIGWVRQMPGKGLEWMGIIYPGDSDTRYSPSFQGQVTISADKSISTVYLQWSSLKASDTAMYYCARQWSHYTYDYYYWGQGTLVTISS VL: QSVLTQPASVSGSPGQSITISCTGISSDVGGYNSVSWYQQHPGKAPKLMIYDVTNRPSGVSNRFSGSKSGNTASLTISGLQAEDEADYYCSSYTSSSTPPYVFGTGTKVSVL	–	–	–	binding result [2]: binds
GAR03 Fab (Fab, V domains shown, also called GAR03 antibody Fab; source: ExpiCHO, purified (Talon resin, S200 SEC)) VH: QVQLVQSGAEVKKPGASVKVSCKASGYTFSSYDINWVRQAPGQGLEWMGWMSPNSGNTGYAQKFQGRVTMTRSTSMSTAYMELSSLRSEDTAVYFCARMSSSLTNYLDYWGQGTLVTVSS VL: SYVLTQPPSVAVAPGQTARIRCGENDIGSKNVHWYQQKSGQAPVLVVYDDSDRPSGIPERFSGSNSGNTATLTISRVEAGDEADYYCQVWDSTGDHPDVVFGGGTKLTVL	–	–	–	binding result [3]: binds
GAR16 (antibody, V domains shown) VH: EVQLVESGGGVVQPGGSLRLSCAASGFTFSNYDMHWVRQATGKGLEWVSAIGTAGDTYYPDSVKGRFTISRDNAKNSLYLQMNSLRAEDTAVYYCTRVVHSSDWTSWSAGIHNWFDSWGQGTLVTVSS VL: DIVMTQSPSSLSASVGDRVSITCRTSQSIRTYLNWYQQKPGKAPKLLIYASSSLQSGVPSRFSGSGSGTDFTLSISSLQPEDFATYYCQQSYSMPPWTFGQGTKLEIK	binds	binds	binds	–
GAR18 (antibody, V domains shown) VH: QVQLQESGPGLVKPSETLSLTCTVSGGSISDYYWSWIRQPPGKGLEWIGYIHGSGGTNYNPSLKSRVTILVDTSKNELSLKLSSVTTADTAVYYCARDDMISGLGYYGMDVWGQGTTVTVSS VL: EIVMTQSPATLSLSPGERVTLSCRASQSVSSYLAWYQQKPGQAPRLLIYDASNRATGIPARFSGSGSGTDFTLTISSLEPEDFAVYYCQQRSNWPSTFGPGTKVDIK	–	binds	–	–
